{
  "source": "patent US20130136748A1",
  "about": "(Ablynx, published 2013)",
  "binders": {"B1": {"name": "34C07 (VHH)", "VHH": "EVQLVESGGGLVQPGGSLGLSCVASGSIFRINAMAWYRQAPGKQRELVAEITAGGSTNYADSVKGRFTISVDNAWNTLYLQMNSLKVEDTAVYYCNLDHYTTWDRRSAYWGQGTQVTVSS", "notes": "c-myc, His6-tagged form as expressed; also called 34C7; HER3MS34C07"}, "B2": {"name": "HER3MS00045 (VHH)", "VHH": "EVQLVESGGGLVQPGGSLRLSCAASGFTFSSYPMSWVRQAPGKGPEWVSTVSPGGITTSYADSVKGRFTISRDNSKNTLYLQMNSLRPEDTAVYYCARDLNNRGQGTLVTVSS", "notes": "04C07 basic + A46E + L93A; also called HER3MS0045"}},
  "key": {"[1]": {"target": "T1, hHER3 ECD (human HER3 extracellular domain) (human, UniProt P21860 20-643)", "T1 construct": "also called recombinant HER3-ECD", "assay": "ELISA, coated hHER3-ECD"}, "[2]": {"target": "T1, hHER3 ECD (human HER3 extracellular …)", "assay": "off rate on recombinant HER3-ECD, periplasmic extract"}, "hHER3 full length [3]": {"target": "T2, hHER3 full length (human, UniProt P21860 20-1342)", "T2 construct": "On transfected CHO, CHO HER2/HER3, CHO EGFR/HER3 or CHO Flp-In cells; endogenous HER3 of MCF-7 and MDA-MB468 cells in the signalling assays; also called human HER3", "assay": "FACS, 400 nM, competitor 23F05-biotin"}, "hHER3 full length [4]": {"target": "T2, hHER3 full length", "assay": "FACS, 400 nM, competitor 04C07-biotin"}, "[5]": {"target": "T3, human HER3-Fc (R&D Systems, 348-RB) (human, UniProt P21860 20-643)", "T3 construct": "Bought; also called hHER3-Fc; Fc-HER3; Fc part of the bought chimera not given, not described", "assay": "HRG competition alphascreen"}, "hHER3 full length [6]": {"target": "T2, hHER3 full length", "assay": "cell-based or functional assay"}, "[7]": {"target": "T1, hHER3 ECD (human HER3 extracellular …)", "assay": "SPR off rate on HER3-ECD"}, "hHER3 full length [8]": {"target": "T2, hHER3 full length", "assay": "FACS, 400 nM, competitor 18E08-biotin"}, "[9]": {"target": "T3, human HER3-Fc (R&D Systems, 348-RB)", "assay": "34C07 competition alphascreen"}, "hHER3 full length [10]": {"target": "T2, hHER3 full length", "assay": "FACS, 400 nM, competitor 17C08-biotin"}, "[11]": {"target": "T3, human HER3-Fc (R&D Systems, 348-RB)", "assay": "SPR, HER3-Fc captured; heterogenous curve, main interaction (84%)"}, "hHER3 full length [12]": {"target": "T2, hHER3 full length", "assay": "FACS, 400 nM, competitor 04F10-biotin"}, "hHER3 full length [13]": {"target": "T2, hHER3 full length", "assay": "cell-based or functional assay", "remark": "listed apart in the source"}, "hHER3 full length [14]": {"target": "T2, hHER3 full length", "assay": "FACS, 400 nM, competitor 21B02-biotin"}, "[15]": {"target": "T4, cHER3ECD (Maccaca fascicularis HER3 extracellular domain) (Macaca fascicularis, UniProt P21860 20-643 (human entry))", "T4 construct": "also called cyno HER3ECD; cyno HER3-ECD", "T4 chain": "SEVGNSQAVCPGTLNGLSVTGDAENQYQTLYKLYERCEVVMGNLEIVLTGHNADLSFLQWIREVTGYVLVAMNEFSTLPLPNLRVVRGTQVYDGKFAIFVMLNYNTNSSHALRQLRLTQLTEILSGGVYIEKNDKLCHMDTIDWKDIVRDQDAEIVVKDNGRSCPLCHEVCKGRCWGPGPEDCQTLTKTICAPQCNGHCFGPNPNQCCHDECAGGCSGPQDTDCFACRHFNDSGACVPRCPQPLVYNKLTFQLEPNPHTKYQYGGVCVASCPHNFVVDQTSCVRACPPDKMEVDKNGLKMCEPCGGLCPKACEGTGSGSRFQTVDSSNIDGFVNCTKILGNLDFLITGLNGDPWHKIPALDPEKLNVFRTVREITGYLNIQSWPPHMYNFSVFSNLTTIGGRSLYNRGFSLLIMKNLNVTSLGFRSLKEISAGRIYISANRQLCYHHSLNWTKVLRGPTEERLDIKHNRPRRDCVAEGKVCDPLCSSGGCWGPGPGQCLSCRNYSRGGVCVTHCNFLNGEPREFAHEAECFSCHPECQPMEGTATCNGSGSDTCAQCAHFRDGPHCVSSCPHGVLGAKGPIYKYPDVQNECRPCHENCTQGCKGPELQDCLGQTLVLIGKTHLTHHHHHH", "assay": "ELISA, coated cHER3-ECD"}, "hHER3 full length [16]": {"target": "T2, hHER3 full length", "assay": "cell-based or functional assay", "remark": "listed apart in the source"}, "[17]": {"target": "T3, human HER3-Fc (R&D Systems, 348-RB)", "assay": "HRG competition alphascreen", "remark": "listed apart in the source"}, "[18]": {"target": "T3, human HER3-Fc (R&D Systems, 348-RB)", "assay": "HRG blocking alphascreen"}},
  "note": "Several values for one entry are separate records, joined by “and”; a condition that tells them apart may be missing. Equal entries are not always repeated.",
  "data": [
    {"binder": "B1", "values": [
      {"measurement": "EC50", "setting": "[1]", "result": 0.46, "unit": "nM"},
      {"measurement": "koff", "setting": "[2]", "result": "0.00037 s⁻¹ and 0.00039 s⁻¹"},
      {"measurement": "% competition", "setting": "hHER3 full length [3]", "result": 10, "unit": "%"},
      {"measurement": "% competition", "setting": "hHER3 full length [4]", "result": 0, "unit": "%"},
      {"measurement": "% inhibition", "setting": "[5]", "result": 65.2, "unit": "%"},
      {"measurement": "IC50", "setting": "[5]", "result": 0.815, "unit": "nM"},
      {"measurement": "IC50, HRG1-β1 induced pAkt, MCF-7", "setting": "hHER3 full length [6]", "result": "4.99e-08", "unit": "M"},
      {"measurement": "IC50, HRG1-β1 induced pERK1/2, MCF-7", "setting": "hHER3 full length [6]", "result": "1e-07", "unit": "M"},
      {"measurement": "koff", "setting": "[7]", "result": "0.0003 s⁻¹ and 0.00031 s⁻¹"},
      {"measurement": "% competition", "setting": "hHER3 full length [8]", "result": 99, "unit": "%"},
      {"measurement": "IC50", "setting": "[9]", "result": 5.5, "unit": "nM"},
      {"measurement": "% competition", "setting": "hHER3 full length [10]", "result": 56, "unit": "%"},
      {"measurement": "Kd", "setting": "[11]", "result": 14, "unit": "nM"},
      {"measurement": "kon", "setting": "[11]", "result": 18000, "unit": "M⁻¹ s⁻¹"},
      {"measurement": "% competition", "setting": "hHER3 full length [12]", "result": 0, "unit": "%"},
      {"measurement": "IC50 pHER3 blocking, MCF7", "setting": "hHER3 full length [13]", "result": "2.49e-08", "unit": "M"},
      {"measurement": "% competition", "setting": "hHER3 full length [14]", "result": 6, "unit": "%"},
      {"measurement": "EC50", "setting": "[15]", "result": 0.43, "unit": "nM"},
      {"measurement": "IC50, HRG1-β1 induced pHER3, MCF-7", "setting": "hHER3 full length [16]", "result": "1.89e-08", "unit": "M"},
      {"measurement": "IC50, HRG1-β1 induced pHER3, MDA-MB468", "setting": "hHER3 full length [16]", "result": "1.07e-08", "unit": "M"}
    ]},
    {"binder": "B2", "values": [
      {"measurement": "IC50", "setting": "[17]", "result": 4.91, "unit": "nM"},
      {"measurement": "fold lower potency than parental 04C07", "setting": "[18]", "result": 18, "unit": "fold"}
    ]}
  ]
}
